In paper PMC7896505, “Expression, purification, crystallization and preliminary X-ray crystallographic studies of a mitochondrial membrane-associated protein Cbs2 from Saccharomyces cerevisiae” (PeerJ, 2021):

Target: the molecule itself
Assay: SEC; Superdex 200 10/300 in buffer G (20 mM Tris-HCl pH 7.5, 100 mM NaCl, 2 mM DTT); molecular weight from a calibration curve (Gel Filtration Calibration Kits HMW and LMW); peak at approximately 90 KDa against about 44 KDa on SDS-PAGE

B1: Cbs2 from Saccharomyces cerevisiae (natural protein, S. cerevisiae, UniProt P14905 1-389, looked up)
chain: MSSSIPRVYSLGNSAMTYLLALRIAQLPSQPKVPSVVLLLNDQKKLNRFLNNDSKIIVKSSNNNKETYHRQFMASCVPPILSNGEIAPIENLIVSDPSSKFITAQLSKYNKSLRPETNILFLNPSLNLLEHLHRYRWRFDEARPNLFMGFTTPVDVGTIHQEFQLSLKVKGRIQFHIAKIDGFPRMSSTGKSASLSLRGDRQKNEKENNAFYKLFREISRLRSGIGSDLVSFDLHVHGFQDLFFTELEKLILESCTEPLLAVYDCVYKKELLKIPGAQDIIKKLISEQLSIIDRSYPSLNTNPNYSVIFDKERIFSLVMRDLEVNGHKRAKLAQSLNQLNQTNINELNGFFVSLGKYKKCNCKWNDILLTLIKGKQFITKQKALDYHYL
notes: 389 amino acids; The selenomethionine derivative (Se-Cbs2) was used only for crystallization; also called recombinant Cbs2; Cbs2-His tag; source: E. coli C43 (DE3), purified (Ni-NTA, Hitrap Q anion exchange, Superdex 200 gel filtration)
B1 was tested, and the “stoichiometry N” value was 2.
